How the values were obtained:
[1] = system: GFP-14-3-3β and its binding proteins; test: GFP-14-3-3β co-IP with LC-MS/MS label-free quantification, untreated versus PP1c-treated; set-up: species or system human; conditions: pairwise comparison PP1 vs untreated, 3 replicates each
[2] = system: GFP-14-3-3β; test: GFP-14-3-3β co-IP with LC-MS/MS, untreated GFP-14-3-3β versus GFP control (14-3-3 interactome); assay type: binding, human; conditions: 3 replicates each
[3] = student's t-test, LC-MS/MS label-free quantification
[4] = pairwise comparison untreated GFP-14-3-3β vs GFP, student's t-test, LC-MS/MS label-free quantification

B1: AMER1 (protein, UniProt Q5JTC6 1-1135, looked up)
APC membrane recruitment …: METQKDEAAQAKGAAASGSTREQTAEKGAKNKAAEATEGPTSEPSSSGPGRLKKTAMKLFGGKKGICTLPSFFGGGRSKGSGKGSSKKGLSKSKTHDGLSEAAHGPEDVVSEGTGFSLPLPELPCQFPSSQSAHGALETGSRCKTSVAGATEKAVAEKFPSMPKPKKGLKGFFSSIRRHRKSKVTGAEQSEPGAKGPERVRARPHEHVSSAPQVPCFEETFQAPRKENANPQDAPGPKVSPTPEPSPPATEKMACKDPEKPMEACASAHVQPKPAPEASSLEEPHSPETGEKVVAGEVNPPNGPVGDPLSLLFGDVTSLKSFDSLTGCGDIIAEQDMDSMTDSMASGGQRANRDGTKRSSCLVTYQGGGEEMALPDDDDEEEEEEEEVELEEEEEEVKEEEEDDDLEYLWETAQMYPRPNMNLGYHPTTSPGHHGYMLLDPVRSYPGLAPGELLTPQSDQQESAPNSDEGYYDSTTPGFEDDSGEALGLVRRDCLPRDSYSGDALYEFYEPDDSLENSPPGDDCLYDLHGRSSEMFDPFLNFEPFLSSRPPGAMETEEERLVTIQKQLLYWELRREQLEAQEARAREAHAREAHAREAYTREAYGREAYAREAHTWEAHGREARTREAQAREVRCRETQVRETQARQEKPVLEYQMRPLGPSVMGLAAGVSGTSQISHRGITSAFPTTASSEPDWRDFRPLEKRYEGTCSKKDQSTCLMQLFQSDAMFEPDMQEANFGGSPRRAYPTYSPPEDPEEEEVEKEGNATVSFSQALVEFTSNGNLFSSMSCSSDSDSSFTQNLPELPPMVTFDIADVERDGEGKCEENPEFHNDEDLAASLEAFELGYYHKHAFNNYHSRFYQGLPWGVSSLPRYLGLPGLHPRPPPAAMALNRRSRSLDTAETLEMELSNSHLVQGYLESDELQAQQEDSDEEDEEEEEGEWSRDSPLSLYTEPPGAYDWPAWAPCPLPVGPGPAWISPNQLDRPSSQSPYRQATCCIPPMTMSISLSVPESRAPGESGPQLARPSHLHLPMGPCYNLQPQASQSMRARPRDVLLPVDEPSCSSSSGGFSPSPLPQAKPVGITHGIPQLPRVRPEHPQPQPTHYGPSSLDLSKERAEQGASLATSYSSTAMNGNLAK
- Difference (log2), PP1 vs untreated [1, 3]: -2.386 log2
- Difference (log2), untreated vs GFP [2, 4]: 1.494 log2

B2: PARD3 (protein, UniProt Q8TEW0 1-1356, looked up)
Partitioning defective 3 …: MKVTVCFGRTRVVVPCGDGHMKVFSLIQQAVTRYRKAIAKDPNYWIQVHRLEHGDGGILDLDDILCDVADDKDRLVAVFDEQDPHHGGDGTSASSTGTQSPEIFGSELGTNNVSAFQPYQATSEIEVTPSVLRANMPLHVRRSSDPALIGLSTSVSDSNFSSEEPSRKNPTRWSTTAGFLKQNTAGSPKTCDRKKDENYRSLPRDTSNWSNQFQRDNARSSLSASHPMVGKWLEKQEQDEDGTEEDNSRVEPVGHADTGLEHIPNFSLDDMVKLVEVPNDGGPLGIHVVPFSARGGRTLGLLVKRLEKGGKAEHENLFRENDCIVRINDGDLRNRRFEQAQHMFRQAMRTPIIWFHVVPAANKEQYEQLSQSEKNNYYSSRFSPDSQYIDNRSVNSAGLHTVQRAPRLNHPPEQIDSHSRLPHSAHPSGKPPSAPASAPQNVFSTTVSSGYNTKKIGKRLNIQLKKGTEGLGFSITSRDVTIGGSAPIYVKNILPRGAAIQDGRLKAGDRLIEVNGVDLVGKSQEEVVSLLRSTKMEGTVSLLVFRQEDAFHPRELNAEPSQMQIPKETKAEDEDIVLTPDGTREFLTFEVPLNDSGSAGLGVSVKGNRSKENHADLGIFVKSIINGGAASKDGRLRVNDQLIAVNGESLLGKTNQDAMETLRRSMSTEGNKRGMIQLIVARRISKCNELKSPGSPPGPELPIETALDDRERRISHSLYSGIEGLDESPSRNAALSRIMGESGKYQLSPTVNMPQDDTVIIEDDRLPVLPPHLSDQSSSSSHDDVGFVTADAGTWAKAAISDSADCSLSPDVDPVLAFQREGFGRQSMSEKRTKQFSDASQLDFVKTRKSKSMDLGIADETKLNTVDDQKAGSPSRDVGPSLGLKKSSSLESLQTAVAEVTLNGDIPFHRPRPRIIRGRGCNESFRAAIDKSYDKPAVDDDDEGMETLEEDTEESSRSGRESVSTASDQPSHSLERQMNGNQEKGDKTDRKKDKTGKEKKKDRDKEKDKMKAKKGMLKGLGDMFRFGKHRKDDKIEKTGKIKIQESFTSEEERIRMKQEQERIQAKTREFRERQARERDYAEIQDFHRTFGCDDELMYGGVSSYEGSMALNARPQSPREGHMMDALYAQVKKPRNSKPSPVDSNRSTPSNHDRIQRLRQEFQQAKQDEDVEDRRRTYSFEQPWPNARPATQSGRHSVSVEVQMQRQRQEERESSQQAQRQYSSLPRQSRKNASSVSQDSWEQNYSPGEGFQSAKENPRYSSYQGSRNGYLGGHGFNARVMLETQELLRQEQRRKEQQMKKQPPSEGPSNYDSYKKVQDPSYAPPKGPFRQDVPPSPSQVARLNRLQTPEKGRPFYS
- Difference (log2), PP1 vs untreated [1, 3]: -2.404 log2
- Difference (log2), untreated vs GFP [2, 4]: 5.534 log2

B3: HIRIP3 (protein, UniProt Q9BW71 1-556, looked up)
HIRA-interacting protein 3: MAREKEMQEFTRSFFRGRPDLSTLTHSIVRRRYLAHSGRSHLEPEEKQALKRLVEEELLKMQVDEAASREDKLDLTKKGKRPPTPCSDPERKRFRFNSESESGSEASSPDYFGPPAKNGVAAEVSPAKEENPRRASKAVEESSDEERQRDLPAQRGEESSEEEEKGYKGKTRKKPVVKKQAPGKASVSRKQAREESEESEAEPVQRTAKKVEGNKGTKSLKESEQESEEEILAQKKEQREEEVEEEEKEEDEEKGDWKPRTRSNGRRKSAREERSCKQKSQAKRLLGDSDSEEEQKEAASSGDDSGRDREPPVQRKSEDRTQLKGGKRLSGSSEDEEDSGKGEPTAKGSRKMARLGSTSGEESDLEREVSDSEAGGGPQGERKNRSSKKSSRKGRTRSSSSSSDGSPEAKGGKAGSGRRGEDHPAVMRLKRYIRACGAHRNYKKLLGSCCSHKERLSILRAELEALGMKGTPSLGKCRALKEQREEAAEVASLDVANIISGSGRPRRRTAWNPLGEAAPPGELYRRTLDSDEERPRPAPPDWSHMRGIISSDGESN
- Difference (log2), PP1 vs untreated [1, 3]: -2.4581 log2
- Difference (log2), untreated vs GFP [2, 4]: 0.3778 log2

B4: MYPN (protein, UniProt Q86TC9 1-1320, looked up)
Myopalladin: MQDDSIEASTSISQLLRESYLAETRHRGNNERSRAEPSSNPCHFGSPSGAAEGGGGQDDLPDLSAFLSQEELDESVNLARLAINYDPLEKADETQARKRLSPDQMKHSPNLSFEPNFCQDNPRSPTSSKESPQEAKRPQYCSETQSKKVFLNKAADFIEELSSLFKSHSSKRIRPRACKNHKSKLESQNKVMQENSSSFSDLSERRERSSVPIPIPADTRDNEVNHALEQQEAKRREAEQAASEAAGGDTTPGSSPSSLYYEEPLGQPPRFTQKLRSREVPEGTRVQLDCIVVGIPPPQVRWYCEGKELENSPDIHIVQAGNLHSLTIAEAFEEDTGRYSCFASNIYGTDSTSAEIYIEGVSSSDSEGDPNKEEMNRIQKPNEVSSPPTTSAVIPPAVPQAQHLVAQPRVATIQQCQSPTNYLQGLDGKPIIAAPVFTKMLQNLSASEGQLVVFECRVKGAPSPKVEWYREGTLIEDSPDFRILQKKPRSMAEPEEICTLVIAEVFAEDSGCFTCTASNKYGTVSSIAQLHVRGNEDLSNNGSLHSANSTTNLAAIEPQPSPPHSEPPSVEQPPKPKLEGVLVNHNEPRSSSRIGLRVHFNLPEDDKGSEASSEAGVVTTRQTRPDSFQERFNGQATKTPEPSSPVKEPPPVLAKPKLDSTQLQQLHNQVLLEQHQLQNPPPSSPKEFPFSMTVLNSNAPPAVTTSSKQVKAPSSQTFSLARPKYFFPSTNTTAATVAPSSSPVFTLSSTPQTIQRTVSKESLLVSHPSVQTKSPGGLSIQNEPLPPGPTEPTPPPFTFSIPSGNQFQPRCVSPIPVSPTSRIQNPVAFLSSVLPSLPAIPPTNAMGLPRSAPSMPSQGLAKKNTKSPQPVNDDNIRETKNAVIRDLGKKITFSDVRPNQQEYKISSFEQRLMNEIEFRLERTPVDESDDEIQHDEIPTGKCIAPIFDKRLKHFRVTEGSPVTFTCKIVGIPVPKVYWFKDGKQISKRNEHCKMRREGDGTCSLHIESTTSDDDGNYTIMAANPQGRISCSGHLMVQSLPIRSRLTSAGQSHRGRSRVQERDKEPLQERFFRPHFLQAPGDMVAHEGRLCRLDCKVSGLPPPELTWLLNGQPVLPDASHKMLVRETGVHSLLIDPLTQRDAGTYKCIATNKTGQNSFSLELSVVAKEVKKAPVILEKLQNCGVPEGHPVRLECRVIGMPPPVFYWKKDNETIPCTRERISMHQDTTGYACLLIQPAKKSDAGWYTLSAKNEAGIVSCTARLDIYAQWHHQIPPPMSVRPSGSRYGSLTSKGLDIFSAFSSMESTMVYSCSSRSVVESDEL
- Difference (log2), PP1 vs untreated ([1]; log2 difference, label-free quantification): 1.556
- Difference (log2), untreated vs GFP ([2]; log2 difference, pairwise comparison untreated vs GFP, label-free quantification): -0.08833

B5: CLASP2 (protein, UniProt O75122 1-1294, looked up)
CLIP-associating protein 2: MAMGDDKSFDDEESVDGNRPSSAASAFKVPAPKTSGNPANSARKPGSAGGPKVGGASKEGGAGAVDEDDFIKAFTDVPSIQIYSSRELEETLNKIREILSDDKHDWDQRANALKKIRSLLVAGAAQYDCFFQHLRLLDGALKLSAKDLRSQVVREACITVAHLSTVLGNKFDHGAEAIVPTLFNLVPNSAKVMATSGCAAIRFIIRHTHVPRLIPLITSNCTSKSVPVRRRSFEFLDLLLQEWQTHSLERHAAVLVETIKKGIHDADAEARVEARKTYMGLRNHFPGEAETLYNSLEPSYQKSLQTYLKSSGSVASLPQSDRSSSSSQESLNRPFSSKWSTANPSTVAGRVSAGSSKASSLPGSLQRSRSDIDVNAAAGAKAHHAAGQSVRSGRLGAGALNAGSYASLEDTSDKLDGTASEDGRVRAKLSAPLAGMGNAKADSRGRSRTKMVSQSQPGSRSGSPGRVLTTTALSTVSSGVQRVLVNSASAQKRSKIPRSQGCSREASPSRLSVARSSRIPRPSVSQGCSREASRESSRDTSPVRSFQPLASRHHSRSTGALYAPEVYGASGPGYGISQSSRLSSSVSAMRVLNTGSDVEEAVADALKKPARRRYESYGMHSDDDANSDASSACSERSYSSRNGSIPTYMRQTEDVAEVLNRCASSNWSERKEGLLGLQNLLKNQRTLSRVELKRLCEIFTRMFADPHGKRVFSMFLETLVDFIQVHKDDLQDWLFVLLTQLLKKMGADLLGSVQAKVQKALDVTRESFPNDLQFNILMRFTVDQTQTPSLKVKVAILKYIETLAKQMDPGDFINSSETRLAVSRVITWTTEPKSSDVRKAAQSVLISLFELNTPEFTMLLGALPKTFQDGATKLLHNHLRNTGNGTQSSMGSPLTRPTPRSPANWSSPLTSPTNTSQNTLSPSAFDYDTENMNSEDIYSSLRGVTEAIQNFSFRSQEDMNEPLKRDSKKDDGDSMCGGPGMSDPRAGGDATDSSQTALDNKASLLHSMPTHSSPRSRDYNPYNYSDSISPFNKSALKEAMFDDDADQFPDDLSLDHSDLVAELLKELSNHNERVEERKIALYELMKLTQEESFSVWDEHFKTILLLLLETLGDKEPTIRALALKVLREILRHQPARFKNYAELTVMKTLEAHKDPHKEVVRSAEEAASVLATSISPEQCIKVLCPIIQTADYPINLAAIKMQTKVIERVSKETLNLLLPEIMPGLIQGYDNSESSVRKACVFCLVAVHAVIGDELKPHLSQLTGSKMKLLNLYIKRAQTGSGGADPTTDVSGQS
- Difference (log2), PP1 vs untreated [1, 3]: -2.4301 log2
- Difference (log2), untreated vs GFP [2, 4]: 2.306 log2

Reference: PMC7367873, “Dissecting the sequence determinants for dephosphorylation by the catalytic subunits of phosphatases PP1 and PP2A” (Nature Communications, 2020)
